Results taken from publication PMC11286877.
pKd: −log10 of the molar value.

Molecular target: OLFM4 recombinant protein (SPR) (UniProt Q3UZZ4)
Assay: SPR

Sequence of UniProt Q3UZZ4 (Q3UZZ4 19-505): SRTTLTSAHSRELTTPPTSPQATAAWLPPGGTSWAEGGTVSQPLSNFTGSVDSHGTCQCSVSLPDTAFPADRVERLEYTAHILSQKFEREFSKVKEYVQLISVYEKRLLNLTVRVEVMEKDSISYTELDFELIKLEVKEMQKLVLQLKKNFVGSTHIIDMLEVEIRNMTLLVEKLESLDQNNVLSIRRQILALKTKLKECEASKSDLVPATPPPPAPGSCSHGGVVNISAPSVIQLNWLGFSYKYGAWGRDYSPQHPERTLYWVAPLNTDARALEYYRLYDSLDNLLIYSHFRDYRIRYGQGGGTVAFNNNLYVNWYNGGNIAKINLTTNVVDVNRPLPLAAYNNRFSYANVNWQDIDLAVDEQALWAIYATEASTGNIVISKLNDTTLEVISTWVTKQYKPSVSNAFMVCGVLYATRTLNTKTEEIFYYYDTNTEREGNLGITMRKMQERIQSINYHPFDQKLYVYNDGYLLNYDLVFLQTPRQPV

## MTDH protein, extracellular domain (SPR) (from UniProt Q80WJ7 1-48) (domain or fragment)
  pKd: 10.66
